Reference: patent publication US8283162 (AbbVie / Abbott, dated 2012)
Bridges are numbered along the chain shown (N, C = ends). Where no end group is shown, it is not given here.

B1: Gla domain Protein Z peptide (sequence 16) (peptide)
peptide: LEKECYEEICVYEEA
notes: Synthetic 15-mer homologous to PIVKA-II 13-27, with plain Glu; also called PIVKAII Gla domain (13-27) analog
B2: Gla domain Factor X peptide (sequence 12) (peptide)
peptide: LERECMEETCSYEEA
notes: as for B1
B3: monoclonal antibody 3C10 (antibody, V domains shown)
VH: EVQLVESGGDLVKPGGSLKLSCAASGFTFSSYGMSWVRQTPDKRLEWVATISRGGSSTYYPDSVKGRFTISRDNAKNNLYLQMSSLKSEDTAMYYCASLNYGNFFDYWGQGTTLTVSS
VL: DVVMTQTPLSLPVSLGDQASISCRSSQSLVHSNGNTYLHWYLQKPGQSPKLLIYKVSNRFSGVPDRFSGSGSGTDFTLKISRVEAEDLGVYFCSQNRHVPPTFGGGTKLEIKR
B4: Gla domain Factor VII peptide (sequence 13) (peptide)
peptide: LERECKEEQCSFEEA
notes: as for B1
B5: Gla domain Protein C peptide (sequence 14) (peptide)
peptide: LERECIEEICDFEEA
notes: as for B1
B6: Gla domain Protein S peptide (sequence 15) (peptide)
peptide: LERECIEELCNKEEA
notes: as for B1
B7: Gla domain Factor IX peptide (sequence 11) (peptide)
peptide: LERECMEEKCSFEEA
notes: as for B1

Tests used:
monoclonal antibody 3C10 = target: B3; test: FCS competition: 2 nM Alexa488-PIVKAII (13-27) premixed with 10 nM mAb 3C10, analog peptide added, overnight; D of the tracer; negative control 47±4 (no displacement), positive control 174±10
[1] = target: T1, Alexa-488 labeled PIVKAII Gla domain peptide (13-27) (disulfide 5-10; also: Alexa Fluor 488 label, site not given here); test: fluorescence quenching titration (FRET): 0.05 nM Alexa488 PIVKAII peptide (13-27), BHQ-labelled mAb 3C10 varied, quenching against free antibody binding sites, simple binding model
T1 construct: also called Alexa488-PIVKAII peptide (13-27 cyc); Alexa488-PIVKA-II (13-27)
T1 peptide: LERECVEETCSYEEA

Binder | Apparent Diffusion Coefficient (D) (monoclonal antibody 3C10) [um^2/sec] | Kd [1] [nM]
B1 | 51 | 
B2 | 52 | 
B3 |  | 0.1
B4 | 49 | 
B5 | 53 | 
B6 | 50 | 
B7 | 48 | 
